Measured values: article PMC8445900

Target: SARS-CoV-2 spike protein receptor-binding domain, wildtype (SARS-CoV-2) (UniProt P0DTC2)
Experiment: ITC

CC12.1 single-chain fragment variable (scFv)
Kd: 0.028 µM
dH: -4.8 kcal/mol
